By Km is commonly meant the substrate concentration at which the rate is half of its maximum.

Drawing on PMC2788227 (PLoS ONE, 2009), this text covers Km for 1 substance.

For series [1], the system named is CC(=O)[C@@H](O)[C@H](O)COP(=O)(O)O. As to the kind of experiment: purified protein. The note with it: pH 7.8; 22.0 °C.
Series [2] deals with NC(=O)C1=CN([C@@H]2O[C@H](COP(=O)(O)OP(=O)(O)OC[C@H]3O[C@@H](n4cnc5c(N)ncnc54)[C@H](OP(=O)(O)O)[C@@H]3O)[C@@H](O)[C@H]2O)C=CC1. As to the kind of experiment: purified protein. To be noted: pH 7.8; 22.0 °C; varied: cofactor.

As to “F. tularensis MEP synthase (IspC; 1-deoxy-D-xylulose 5-phosphate reductoisomerase) (Francisella tularensis subsp. holarctica LVS)”, the Km in series [1] amounted to 103.7 ± 12.1 µM; in series [2] it was 13.3 ± 1.5 µM.
